Results taken from US20080064628A1, “Fibrinogen Targetting Microparticles For Promoting Haemostasis” (Haemostatix Limited, priority 2003, published 2008).
One block for each molecule: values may come before it. Ends that are not written are not given here.

Experiments:
fibrinogen (human) [1] = target: fibrinogen (human) (UniProt P02671); assay: flow cytometry, FITC anti-human fibrinogen; albumin microspheres without peptide, fibrinogen bound directly to the surface
fibrinogen (human) [2] = target: fibrinogen (human) (UniProt P02671); assay: flow cytometry, FITC anti-human fibrinogen; albumin microspheres without peptide, coated directly with 10 mg/ml fibrinogen at pH 6.0
platelets [3] = details: purified peptide; cited from earlier work
fibrinogen = target: T1, fibrinogen (Homo sapiens, UniProt P02675+P02679); assay: Fibrinogen binding assay: FITC-labelled anti-human fibrinogen antibody, flow cytometry; details: for Percent positive (percentage of microspheres positive for fibrinogen): flow cytometry, FITC rabbit anti-human fibrinogen antibody; for Median fluorescence intensity: measure of the amount of fibrinogen bound to the microspheres
T1 construct: purchased Scottish National Blood Transfusion Service
T1 sequence (P02671 20-629 partner limits assumed): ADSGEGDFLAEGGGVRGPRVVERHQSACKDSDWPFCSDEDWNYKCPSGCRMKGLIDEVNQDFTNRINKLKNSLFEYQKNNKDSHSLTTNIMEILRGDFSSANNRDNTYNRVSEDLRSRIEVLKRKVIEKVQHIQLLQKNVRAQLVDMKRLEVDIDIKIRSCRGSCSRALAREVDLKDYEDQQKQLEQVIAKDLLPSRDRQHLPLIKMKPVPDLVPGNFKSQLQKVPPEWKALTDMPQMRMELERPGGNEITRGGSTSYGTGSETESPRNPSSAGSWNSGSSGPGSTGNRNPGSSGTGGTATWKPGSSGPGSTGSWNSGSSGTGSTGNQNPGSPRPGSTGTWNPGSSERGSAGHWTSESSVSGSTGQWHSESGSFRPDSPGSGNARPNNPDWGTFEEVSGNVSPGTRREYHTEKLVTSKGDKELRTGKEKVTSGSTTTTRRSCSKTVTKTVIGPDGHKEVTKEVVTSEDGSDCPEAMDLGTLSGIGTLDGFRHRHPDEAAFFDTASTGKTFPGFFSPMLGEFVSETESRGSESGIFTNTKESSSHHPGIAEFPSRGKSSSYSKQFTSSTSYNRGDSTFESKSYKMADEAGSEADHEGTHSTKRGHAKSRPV
T1 sequence (P02675 31-491): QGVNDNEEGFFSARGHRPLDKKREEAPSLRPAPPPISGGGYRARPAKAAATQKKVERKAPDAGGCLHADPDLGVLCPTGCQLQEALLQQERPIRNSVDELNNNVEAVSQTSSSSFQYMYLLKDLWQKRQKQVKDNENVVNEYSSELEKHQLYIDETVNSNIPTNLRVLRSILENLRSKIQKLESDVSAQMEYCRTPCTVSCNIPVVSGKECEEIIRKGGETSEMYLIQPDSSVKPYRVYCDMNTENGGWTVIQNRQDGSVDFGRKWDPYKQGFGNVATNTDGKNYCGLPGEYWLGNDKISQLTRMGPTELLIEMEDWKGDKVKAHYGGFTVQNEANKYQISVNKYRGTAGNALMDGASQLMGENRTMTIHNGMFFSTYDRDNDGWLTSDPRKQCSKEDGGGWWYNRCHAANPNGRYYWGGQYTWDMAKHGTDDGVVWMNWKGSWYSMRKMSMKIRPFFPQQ
T1 sequence (P02679 27-437 isoform P02679-2 limits assumed): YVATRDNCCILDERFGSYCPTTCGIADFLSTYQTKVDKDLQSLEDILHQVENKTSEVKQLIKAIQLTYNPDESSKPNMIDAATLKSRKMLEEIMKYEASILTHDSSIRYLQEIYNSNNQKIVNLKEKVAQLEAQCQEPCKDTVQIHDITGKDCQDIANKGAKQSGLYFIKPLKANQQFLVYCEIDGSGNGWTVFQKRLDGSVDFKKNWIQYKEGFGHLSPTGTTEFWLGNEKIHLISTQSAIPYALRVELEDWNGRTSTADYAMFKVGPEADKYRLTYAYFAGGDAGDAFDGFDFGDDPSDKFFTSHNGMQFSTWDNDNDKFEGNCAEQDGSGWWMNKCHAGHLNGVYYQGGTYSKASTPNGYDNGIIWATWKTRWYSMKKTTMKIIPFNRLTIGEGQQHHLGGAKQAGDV
Procedure: 2. Fibrinogen Binding Assay
(i) 5 μl of a suspension of artificial platelets obtained from step (iv) of method 1 above was added to 50 μl of HEPES buffered saline containing 1 μl of FITC-labelled rabbit antibody to human fibrinogen (DakoCytomation; F0111). The mixture was incubated at 20° C. for 20 minutes. Blank microspheres (without DTNB treatment or peptide) or a cysteine control sample were used as a negative control for these assays.
(ii) After 20 minutes the reaction was stopped by the addition of 0.5 ml saline. After a further 10 minutes, the sample was diluted 1/10 in saline and analysed in a Flow Cytometer (e.g. Coulter XL-MCL Flow Cytometer).
(iii) Data were recorded as the percentage of microspheres positive for fibrinogen and the median fluorescence intensity of the particles. The latter is a measure of the amount of fibrinogen bound to the microspheres and is in arbitrary units (log scale).

platelets [4] = assay: Platelet aggregation in platelet-depleted plasma by light transmission (PAP-4 aggregometer); type: cell-based, human
Procedure: 4.2 Method for Measuring Aggregation by Light Transmission Using the PAP-4 Platelet Aggregometer
In this system the product was mixed with platelet-depleted plasma in a stirred system at […] and aggregation was measured by a change in light transmission.
(i) 400 μl of platelet-depleted plasma was mixed with 20 μl of blank microspheres at 10 mg albumin/ml.
(ii) ADP was added at concentrations between 1 and 4×10^−5M
(iii) Aggregation was measured over 20 minutes and recorded as the percentage of maximum using autologous plasma to set the value for 100% aggregation.

platelets [5] = assay: Platelet aggregation in platelet-depleted plasma by counting single platelets in a flow cytometer; type: cell-based, human; details: mean ± sd of 3 experiments; for Percentage aggregation in the absence of ADP: inactive platelets, percentage loss of single CD42b-positive platelets from the gate; for Percentage aggregation in the presence of ADP: platelets activated with sub-optimal ADP, percentage loss of single CD42b-positive platelets
Procedure: 3.2 Preparation of Platelet-Depleted Plasma
(i) Two tubes of blood were collected into tri-sodium citrate anticoagulant, by clean venepuncture via a 21 gauge butterfly needle. The blood was processed within 10 minutes of collection, to minimise platelet activation in vitro.
(ii) One tube of blood was centrifuged at 150× g for 20 minutes at 20° C. to prepare platelet rich plasma (PRP).
(iii) A second tube of blood was centrifuged at 1500× g for 30 minutes at 20° C. to prepare platelet poor plasma (PPP).
(iv) The PRP was removed from the blood cell fraction and mixed with the PPP to achieve a platelet count of between 10 and 50×10^6 platelets/ml.
4.1 Method for Measuring Aggregation by Counting in a Flow Cytometer
Flow cytometry can be used to count the number of residual single platelets, and thereby to calculate the percentage of platelets that have bound to artificial platelets. The sample is analysed by the forward and side scatter and an electronic gate is set around the population of single platelets. To do this a sample of platelet-rich plasma is used that contains EDTA to prevent platelet-platelet aggregation occurring. The platelets are labelled with a fluorescently-conjugated antibody such as a CD42b monoclonal that binds to the GPIb receptor on all platelets.
As aggregation occurs the number of platelets within the gate declines. The artificial platelets should not induce aggregation of non-activated (“resting”) platelets. If, however, the platelets are activated, for example by ADP they should aggregate with the artificial platelets. In this assay a sub-optimal concentration of ADP is used to distinguish the effects of the artificial platelets in platelet-deficient plasma.
(i) To set the platelet gate, whole blood that had been collected into EDTA was used. 5 μl of EDTA anticoagulated blood was added to 50 μl Hepes-buffered saline and analysed by forward and side scatter in a flow cytometer (e.g. Beckman Coulter MCL-XL). A gate was set around the platelet population so that>98% of the single platelets are contained within the platelet gate.
(ii) 400 μL of platelet-depleted plasma, with a platelet count of 10-60×10^6/ml, was mixed with 20 μL of control microspheres (blank capsules as disclosed in Example 1, Method 1 (i)) at 10 mg albumin/ml and ADP was added at final concentrations of between 1 and 4×10^−5 M. The sample was stirred at 900 rpm at 37° C. in an aggregometer cuvette for up 10 minutes and aggregation was measured as the change in light transmission (as described in section 4.2 below). The ADP concentration that gave>0% and<20% aggregation was used for the subsequent analysis of the interaction of the product with platelet-depleted plasma.
(iii) To test the products, 400 μL of platelet-depleted plasma, with a platelet count of 10-60×10^6/ml, was mixed with 20 μL of test microspheres at 10 mg albumin/ml and ADP at a concentration determined as described above. The sample was mixed at 900 rpm for up to 10 minutes. At appropriate times 5 μl aliquots were removed for flow cytometric analysis as follows.
(iv) For the analysis 5 μl of test sample was added to 50 μ1 Hepes-buffered saline containing an appropriate concentration of a fluorescently-conjugated antibody to an antigen present on all platelets. We used 1 μl of an RPE-conjugated CD42b monoclonal antibody (we used antibody 555473 provided by BD Harlingen). The sample was incubated for 20 minutes at room temperature (typically 20° C. ) then diluted with 0.5 ml formyl saline (0.2% formalin in 0.9% NaCl).
(v) The diluted sample was then analysed by forward and side scatter in a flow cytometer (e.g. Beckman Coulter MCL-XL) using the gate set around the platelet population in the control sample (see 4.1.i), allowing a fixed volume of sample (e.g. 20 μl) to pass through the cytometer. Particles enclosed in the platelet gate were analysed for fluorescence to identify the number of single platelets within the gate. […]

thrombin = assay: Response of products to thrombin in platelet-free plasma (light transmission aggregometer); type: biochemical, human; details: increase in light transmission over 20 minutes, mean ± sd of 4 experiments
Procedure: Cross-linking of the agent of the invention via fibrin-fibrin bridging can be tested in a modified aggregation assay, for example, a protocol based on Levi et al, 1999, Nature Medicine, […], 107-111. The method that we used is reported below.
The assay was performed using a light transmission aggregometer (we used a PAP4 aggregometer (BioData Corporation)). […] Aggregation of the microspheres causes an increase in light transmission, which can be recorded as percentage “aggregation” relative to plasma alone.
The microspheres can be counted using a particle counter such as a Flow cytometer (e.g. Beckman Coulter MCL-XL) or Coulter Z2.
(ii) Platelet-free plasma was prepared by centrifuging blood for 30 minutes at 1500× g and collecting the supernatant.
(iii) 350 μl platelet-free plasma was placed in an aggregometer cuvette and 50 μl of blank microspheres were added. […]

fibrinogen (human) [6] = target: fibrinogen (human) (UniProt P02671); assay: flow cytometry of peptide-linked albumin microspheres incubated with 3 mg fibrinogen per ml, detected with FITC rabbit anti-human fibrinogen
[7] = listed as peptide-coupled microspheres

Sequence of fibrinogen (human) (P02671 20-629 limits assumed, chain 1 of 3): as the sequence (P02671 20-629 partner limits assumed) above
Sequence of fibrinogen (human) (P02675 31-491 limits assumed, chain 2 of 3, further chain): as the sequence (P02675 31-491) above
Sequence of fibrinogen (human) (P02679 other isoform, or with tags, fused parts or gaps limits assumed, chain 3 of 3, further chain): as the sequence (P02679 27-437 isoform P02679-2 limits assumed) above

Median fluorescence intensity (arbitrary units (log scale)) (fibrinogen (human) [1]): 22.4 | Percent positive (fibrinogen (human) [1]): 94.7% | Median fluorescence intensity (arbitrary units (log scale)) (fibrinogen (human) [2]): 22 | Percent positive (fibrinogen (human) [2]): 94%
Molecule: human albumin microspheres of the reference batch (fibrinogen bound directly to the surface, method of WO 98/17319) (from UniProt P02768 25-609)

Molecule: TDVNGDGRHDL [Product B12]
Effect on platelet aggregation (platelets [3]): caused inhibition of platelet aggregation

Percent positive (percentage of microspheres positive for fibrinogen) (fibrinogen): 94% | Median fluorescence intensity (fibrinogen): 28 arbitrary units (log scale)
Molecule: Peptide Gly^n = 3: albumin microspheres with bound peptide GPRPGGGC, incubated with 3 mg fibrinogen

Percent positive (percentage of microspheres positive for fibrinogen) (fibrinogen): 95% | Median fluorescence intensity (fibrinogen): 26 arbitrary units (log scale)
Molecule: Peptide Gly^n = 6: albumin microspheres with bound peptide GPRPGGGGGGC, incubated with 3 mg fibrinogen

Percent positive (percentage of microspheres positive for fibrinogen) (fibrinogen): 13.1% | Percent positive (percentage of microspheres positive for fibrinogen) (fibrinogen; listed as 0 mg/ml): 0% | Median fluorescence intensity (fibrinogen): 1.6 arbitrary units (log scale) | Median fluorescence intensity (fibrinogen; listed as 0 mg/ml): 0 arbitrary units (log scale)
Molecule: Product 2: albumin microspheres with peptide GPRPGGGGGGC bound, without fibrinogen
Aggregation in the absence of ADP (aggregometry) (platelets [4]): only low levels of aggregation | Percentage aggregation in the absence of ADP (platelets [5]): 17.8 ± 3.5% | Percentage aggregation in the absence of ADP (platelets [5]; listed as 0 mg/ml): 17.9 ± 3.45% | Percentage aggregation in the absence of ADP (platelets [5]; [7]): 17.8±3.5% | Percentage aggregation in the presence of ADP (platelets [5]): 57.3 ± 9.3% | Percentage aggregation in the presence of ADP (platelets [5]; listed as 0 mg/ml): 57.6 ± 7.64% | Percentage aggregation in the presence of ADP (platelets [5]; [7]): 57.3±9.3% | Percentage aggregation in the absence of thrombin (thrombin): 4.75 ± 4.4% | Percentage aggregation in the absence of thrombin (thrombin; listed as 0 mg/ml): 4.25 ± 4.93%

Percent positive (percentage of microspheres positive for fibrinogen) (fibrinogen): 6% | Median fluorescence intensity (fibrinogen): 2.4 arbitrary units (log scale)
Molecule: Peptide Gly^n = 0: albumin microspheres with bound peptide GPRPC, incubated with 3 mg fibrinogen

Median fluorescence intensity (arbitrary units (log scale)) (fibrinogen (human) [6]): 2.4 | Percent positive (fibrinogen (human) [6]): 6%
Molecule: GPRPC (also: Cys5 thiol bound to human albumin microspheres (DTNB-activated thiol)) [peptide GPRPC linked to human albumin microspheres]
